Consider one substance from patent US20090203580.

Series [1] deals with heat-inactivated alpha-1 antitrypsin.
Series [2] has as its system human alpha-1 antitrypsin (native, not heat-inactivated; clinical grade, e.g. Aralast).

On to “elastase (e.g., Sigma), species not stated”, for which the “elastase activity: hydrolysis of N-Succinyl-Ala-Ala-Ala-p-nitroanalide, absorbance at 410 nm” value in series [1] is “combining HIAAT with elastase produced a curve similar to that of elastase alone”; in series [2] it was “Combining native (NOT heat-inactivated) AAT ablated elastase processing of the N-Succinyl-Ala-Ala-Ala-p-nitroanalide substrate and blocked the increase in A410 nm”.
